This passage reports Kd and stoichiometry N results from doi:10.1101/2024.07.11.602925.

The Kd is the constant that tells how readily two partners part at equilibrium. A high value points to a looser complex. As usually defined, the stoichiometry N is a count of units in the complex or per binding partner.

For this test, the target named is His-tagged PTB domain of RABGAP1. Kind of test: ITC. Background: ITC needs no label: the signal is the heat of the interaction.

Regarding “WT APP tail peptide, starting from the MQQ sequence at position 677 (from UniProt P05067-4 677-695)”, the Kd is 61 µM and the stoichiometry N came out at 1.
